System: βlox5 cells
Assay: RT-PCR analysis of pancreatic hormone gene expression in βlox5 cells
Format: cell-based, human
Conditions: βlox5 cells expressing PDX-1; data not shown
Protocol: FIG. 2: RT-PCR analysis of pancreatic hormone gene expression in βlox5. The conditions tested were βlox5 cells grown in monolayer culture, βlox5 cells infected with a retroviral vector expressing PDX-1, βlox5 cells grown as three-dimensional aggregates, and βlox5 cells treated with exendin-4. FIG. 2(A) insulin; FIG. 2(B) quantitative RT-PCR analysis of insulin gene expression; FIG. 2(C) other pancreatic hormones. Exendin-4 (Sigma) was used at a concentration of 10 nM. RT-PCR for insulin, somatostatin, glucagon, and IAPP have been described previously (Itkin-Ansari et al., submitted). Quantitative RT-PCR was done by interpolation from a standard curve constructed using a plasmid containing the human insulin cDNA.
PDX-1 also acted synergistically with cell-cell contact to further increase the level of somatostatin expression about 1,000-fold above the cells not expressing PDX-1, to a level similar to that found in normal human islets. To determine whether βlox5 could be induced to express pancreatic hormones, recombinant PDX-1 was expressed in βlox5 using a retroviral vector. […] Therefore, other factors were examined for their ability to induce hormone expression in βlox5 cells expressing PDX-1. […]

B1: betacellulin (protein, UniProt P35070 32-111, looked up)
Betacellulin: DGNSTRSPETNGLLCGDPEENCAATTTQSKRKGHFSRCPKQYKHYCIKGRCRFVVAEQTPSCVCDEGYIGARCERVDLFY
notes: factor reported to induce endocrine differentiation in cell lines and primary cells
  effect on hormone expression in βlox5 cells: no effect

Reference: patent US6911324B2, “Induction of beta cell differentiation in human cells” (The Regents of the University of California, priority 2001, dated 2005)
